Reference: patent publication US20100273722A1, “MODIFIED MINIATURE PROTEINS” (Yale University, priority 2007, published 2010)

Molecular target: Down-regulated Hck kinase (containing an N-terminal His6 tag)
Experiment: cell-based or functional assay

Work on HIV Nef protein yielded an Activity (nmol · sec^-1), activator at 50 micromolar (nmol · sec^-1) of 232 and a Fold-Activation, activator at 50 micromolar of 21 fold.
